pKd: −log10 of the molar value.
How the values were obtained:
[1] = biological target: HTT(1-17) peptide, the 17 N-terminal residues of huntingtin (human) (UniProt P42858); assay: ITC; isothermal calorimetry of C4 scFv with HTT(1-17) and truncated peptides; conditions not shown (Fig. S3)
[2] = biological target: truncated peptide HTT(1-14) (human) (UniProt P42858); assay: as above

Substance: C4 single-chain Fv antibody (C4 scFv)
- pKd [1]: 7.30
- fold decrease in binding affinity compared to HTT(1-17) [2]: 10 fold

— paper PMC4451460
